Experimental data: article PMC7979924 (2021)

Legend:
YB-1-CSD (1–180 aa.) = YB-1-CSD (1–180 aa.) (Homo sapiens (Human), UniProt P67809); assay: EMSA; in presence of ssDNA (M13, stem-loop or C20); tests mixing/cooperative co-association on nucleic acid, not direct binding
Lin28-CSD (32–136 aa.) = target: T1, Lin28-CSD (32–136 aa.) (Homo sapiens (Human), UniProt Q9H9Z2); assay: NMR 1H-15N HSQC (peak heights); in presence of 20-nt poly(C) ssDNA; tests co-association on nucleic acid, not direct protein-protein binding
T1 chain: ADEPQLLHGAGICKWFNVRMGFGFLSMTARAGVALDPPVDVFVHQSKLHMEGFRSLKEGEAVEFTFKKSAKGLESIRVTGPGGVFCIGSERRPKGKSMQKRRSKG

YB-1-CSD (1–180 aa.), sequence (P67809 1-180): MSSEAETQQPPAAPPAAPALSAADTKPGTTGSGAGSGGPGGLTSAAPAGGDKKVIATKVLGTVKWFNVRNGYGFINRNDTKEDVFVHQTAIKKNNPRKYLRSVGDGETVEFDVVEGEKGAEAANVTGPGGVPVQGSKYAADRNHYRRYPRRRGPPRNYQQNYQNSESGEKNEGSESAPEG

| Binder | binding result (YB-1-CSD (1–180 aa.)) | binding result (Lin28-CSD (32–136 aa.)) |
| --- | --- | --- |
| TDP43 (RRM 1–2, 101–277aa.) (protein) QKTSDLIVLGLPWKTTEQDLKEYFSTFGEVLMVQVKKDLKTGHSKGFGFVRFTEYETQVKVMSQRHMIDGRWCDCKLPNSKQSQDEPLRSRKVFVGRCTEDMTEDELREFFSQYGDVMDVFIPKPFRAFAFVTFADDQIAQSLCGEDLIIKGISVHISNAEPKHNSNRQLERSGRFG | no binding | – |
| FUS (RRM, 165–385aa.) (protein) SGGGGGGGGGGNYGQDQSSMSSGGGSGGGYGNQDQSGGGGSGGYGQQDRGGRGRGGSGGGGGGGGGGYNRSSGGYEPRGRGGGRGGRGGMGGSDRGGFNKFGGPRDQGSRHDSEQDNSDNNTIFVQGLGENVTIESVADYFKQIGIIKTNKKTGQPMINLYTDRETGKLKGEATVSFDDPPSAKAAIDWFDGKEFSGNPIKVSFATRRADFNRGGGNGRGG | no binding | – |
| TDP-43 RRM2 (176–277aa.) (protein) KLPNSKQSQDEPLRSRKVFVGRCTEDMTEDELREFFSQYGDVMDVFIPKPFRAFAFVTFADDQIAQSLCGEDLIIKGISVHISNAEPKHNSNRQLERSGRFG | – | no binding |
